Target: the molecule itself
Assay: SEC; Superdex 200 column; Spo0A after phosphorylation with phosphoramidate; buffer not stated

B1: Spo0A∼P (phosphorylated form of the response-regulator protein Spo0A) (natural protein, Bacillus subtilis, UniProt P06534 1-267, looked up)
chain: MEKIKVCVADDNRELVSLLSEYIEGQEDMEVIGVAYNGQECLSLFKEKDPDVLVLDIIMPHLDGLAVLERLRESDLKKQPNVIMLTAFGQEDVTKKAVDLGASYFILKPFDMENLVGHIRQVSGNASSVTHRAPSSQSSIIRSSQPEPKKKNLDASITSIIHEIGVPAHIKGYLYLREAISMVYNDIELLGSITKVLYPDIAKKFNTTASRVERAIRHAIEVAWSRGNIDSISSLFGYTVSMTKAKPTNSEFIAMVADKLRLEHKAS
modifications: phosphorylated with phosphoramidate (residue not given; fraction phosphorylated uncertain)
notes: Spo0A, response regulator of Bacillus subtilis, full length, phosphorylated in vitro; also called OA∼P; source: purified following a published protocol [41] as modified [42]; phosphorylated with non-radioactive phosphoramidate
- stoichiometry N: 2
